In patent publication US20200256880A1 (BROAD INSTITUTE, published 2020):

How the values were obtained:
Test in all cases: western blot of recombinant protein
[1] = target: T1, recombinant human CNAα wild type (unphosphorylated) (human, UniProt Q08209 1-521, limits assumed)
T1 construct: Co-expressed with the CNB1 subunit in E. coli and co-purified; run on denaturing gels for western blot; also called wild-type CNAα; WT CNAα
Experimental: (§1) Levels of total CNAα were used as a loading control and were assessed after stripping of the membranes and incubation with anti-CNAα rabbit by chemiluminescence (bottom panel).

[2] = target: T2, recombinant human CNAα S469E phosphomimetic mutant (human, UniProt Q08209 1-521, limits assumed)
T2 construct: Co-expressed with CNB1 in E. coli and co-purified; also called S469E CNAα; phosphomimic mutant S469E
Experimental: as §1

[3] = target: recombinant CNAα double mutant S462E/S469E (human, UniProt Q08209 1-521, limits assumed)
Experimental: as §1

binding result [1]: no binding
binding result [2]: binds
binding result [3]: binds
B1: monoclonal mouse anti-pS469 CNAα antibody (antibody, V domains shown)
VH: EVQLQQSGAELVRPGASVKLSCTASDFNIKDTYIHWLKQRPEQGLEWIGRIDPANSNPKYDPNFQGKATITTDTSSNTAYLQLSSLTSDDTAVYYCTRRDYYGSGSWFAYWGQGTLVTVSS
VL: DIVMTQAAPSVPVTPGESVSISCRSSKSLLHSNGNTYLYWFLQRPGQSPQLLIYRMSNLASGVPDRFSGSGSGTAFTLRINRVEAEDVGVYYCMQHLEYPLTFGAGTKLELK
notes: 7 and 9 are used; Mouse monoclonal; also called monoclonal mouse anti-S469 phosphospecific antibody; monoclonal murine anti-S469 CNAα phosphospecific antibody
